Test results reported in article PMC2818508.

Tests used:
prenylated Rac2-GTP = prenylated Rac2-GTP (UniProt P15153); assay: co-sedimentation
[1] = biological target: Rac2 (prenylated Rac-GTP) (UniProt P15153); assay: liposome co-sedimentation, WAVE2 quantified; conditions: reference: WAVE2 complex, not PP2A treated

| % bound (of total WAVE2) (prenylated Rac2-GTP) | % bound (of total WAVE2; PIP3 liposomes + Rac-GTP) (prenylated Rac2-GTP) | Substance | other: % of total WAVE2 bound [1] |
| --- | --- | --- | --- |
| 55% | 79% | WAVE2 complex, PP2A treated (from UniProt Q9Y6W5 1-498; Q96F07 1-1278; Q9Y2A7 1-1128; Q8IZP0 1-508; Q8WUW1 1-75) |  |
|  |  | WAVE2 (from UniProt Q9Y6W5) PP2A treated WAVE2 complex | same; reference 56 |
